# Test results taken from patent US20210198366A1.
# Residue numbers refer to the chain shown, from its start.
# T1: cynomolgus monkey B7-H7 (soluble analyte in SPR) (cynomolgus monkey)
# T1 sequence: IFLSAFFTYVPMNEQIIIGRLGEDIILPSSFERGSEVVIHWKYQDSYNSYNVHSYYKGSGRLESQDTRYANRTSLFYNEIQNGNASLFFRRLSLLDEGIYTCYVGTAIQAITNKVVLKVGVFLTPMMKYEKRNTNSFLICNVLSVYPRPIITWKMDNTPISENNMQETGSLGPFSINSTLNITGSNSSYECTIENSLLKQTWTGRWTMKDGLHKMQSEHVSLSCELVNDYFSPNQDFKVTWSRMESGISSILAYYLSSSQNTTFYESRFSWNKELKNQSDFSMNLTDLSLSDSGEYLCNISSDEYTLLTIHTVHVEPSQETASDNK
# B1: anti-B7-H7 antibody 2D7 (antibody, V domains shown)
# VH: EVQLQQSGPELVKPGASVKISCKTSGYTFTEYTMHWVKQSHGKSLEWIGGINPNNYGAPYNQKFKGKATLTVDKSSNTAYMELRSLTSEDSAIYYCASGGYYFDYWGQGTTLTVSS
# VL: DIVMTQSHKFMSTSFGDRVSITCKASQDVGTAVAWYQQKLGQSPKLLISWAFTRHTGVPDRFTGSGSGTDYTLTISSLQAEDLALYYCQQHYDTPFTFGSGTKLEIK
# B2: anti-B7-H7 antibody 1D3 (antibody, V domains shown)
# VH: EVQLQQSGPELEKPGASVKISCKASGYSFTGYNMNWVKESNGRSLEWIGNIDPYSGGSTYNQKFKGKATMTVDKSSSTAYMQLKSLTSEDSAVYYCARSVYDAPWLAHWGQGTLVTVSA
# VL: DIQMTQSPASLSASVGETVTITCRASENIYIYLAWYQQKQGKSPQLLVYNAKTLAEGVPSRFSGSGSGTQFSLKINRLQPEDFGNYYCQHHYGTPPTFGGGTKLEIK
# B3: anti-B7-H7 antibody 28F5 (antibody, V domains shown)
# VH: QVQLKESGPGLVAPSQSLSITCTVSGFSLTGYGVNWVRQPPGKGLEWLGVIWGDGSTDYNSVLKSRLSISKDNSKSQVFLKMNSLQTDDTARYYCAREATEYLYWYFDVWGAGTTVTVSS
# VL: DIVLTQSPASLAVSLGQRATISCRASESVEYYGSSLMQWYQQKPGQPPKLLIFAASNVESGVPPRFSGSGSGTDFNLNIHPVDEDDIAMYFCQQGRRVPWTFGGGTKLEIK
# B4: anti-B7-H7 antibody 16D5 (antibody, V domains shown)
# VH: QVQLQQSAAELARPGASVKMSCKASGYTFTTYTMHWVKQRPGQGLEWIGYINPSRGYSDYSQKFQGKSTLTTDKSSNTAYIQLTSLTSEDSAVYFCARGGYDFDYWGQGTTLTVSS
# VL: DIVMTQSHKFMSTSVGDRVSITCKASQDVGTAVAWYQQKPGQSPKLLLYWASTRHTGVPDRFTGSGSGTDYTLTISSVQAEDLALYHCQQHFITPYTFGGGTKLEIK
# B5: anti-B7-H7 antibody 2F10 (antibody, V domains shown)
# VH: EIQLQQTGPELVKPGASLRISCKASGYSFTDYIIVWVKQNQGKNLDWIEKINPYYGTTTYNLRFEDKATLTVNKSSTTAYMQLNSLTSEDSAVYYCARWDYVSTLFAMDYWGQGTSITVSS
# VL: DIVMTQSHKVMSTSVGDRVSIICKASQDVGTAVAWYQQKPGQSPKLLIYWASTRHTGVPDRFTGSGSGTDFILTITNVQSENLANYFCQQYKRYYTFGGGTKLEIK
# B6: anti-B7-H7 antibody 5F7 (antibody, V domains shown)
# VH: QEQLQQPGTELVKPGASVKISCKASGYTFSSYSMHWVKLTPGQGLEWMGTIYPGNENTSYNQKFKGKATLTADKSSSTAYMQLSSLTSEDSAVYYCARGGYYFDYWGQGTTLTVSS
# VL: B4 VL with M11L, G30S, L48I, P59S, Y71F, H87Y, I93D, T94I, T97W
# B7: anti-B7-H7 antibody 5B10 (antibody, V domains shown)
# VH: B2 VH with E39Q, R43K, M70L, Y80S, M81L, A92S, V100F, W105Y, A107T, H108Y
# VL: DIQMTQSPTSLSASVGETVTITCRASENIFIYLAWYQQKQGKSPQLLVFNAKTLAEGVPSRFSGSGSGTQFSLKINSLRPEDFGTYYCQHHYGTPPTFGGGTKLEV
# B8: anti-B7-H7 antibody 5C9 (antibody, V domains shown)
# VH: QVQLQQSGAELAKPGASVKMSCKASGYTFTSFWIHWIKQRPGQGLEWIGYIIPNTDYTEYNQKFKDKATFTADKSSSTAYMQLSSLTSEDSAVFYCARGLRGAYYFDYWGQGTTLTVSS
# VL: DIVLTQSPASLAVSLGLRATISCRSSQSVSTSTNGYMHWYQQKPGQPPKLLIMYASNLESGVPARFSGSGSGTDFTLNIHPVDEEDTATYYCQHSWVLPYTFGGGTKLEIK
# B9: anti-B7-H7 antibody 3H6 (antibody, V domains shown)
# VH: B1 VH with Y56G, N77S, I93V, S98R
# VL: B1 VL with F15V, G30S, L40S, S49Y, F52S, L78V, S100G
# B10: chimeric 2D7 antibody comprising the murine heavy chain and light chain variable regions of 2D7 and a human Fc region (antibody, V domains shown)
# VH: B1 VH
# VL: B1 VL
# B11: humanized anti-B7-H7 antibody Hz2D7 (antibody, human IgG1, kappa, V domains shown)
# VH: QVQLVQSGAEVKKPGASVKVSCKTSGYTFTEYTMHWVRQAPGQGLEWMGGINPNNYGAPYNQKFKGRVTMTVDTSISTAYMELSRLRSDDTAVYYCASGGYYFDYWGQGTLVTVSS
# VL: DIQMTQSPSSLSASVGDRVTITCKASQDVGTAVAWYQQKPGKAPKLLIYWAFTRHTGVPSRFSGSGSGTDYTLTISSLQPEDFATYYCQQHYDTPFTFGQGTKVEIKR
# Biological target: T1, cynomolgus monkey B7-H7 (soluble analyte in SPR) (cynomolgus monkey)
# Test: SPR (Biacore), antibody captured by anti-Fc on CM5 chip, B7-H7 injected, 37 C
row,Kd [nM],Binder
1,0.6,B1
2,3.2,B2
3,4.5,B3
4,6.9,B4
5,8.6,B5
6,1.2,B6
7,4.6,B7
8,4.8,B8
9,6.9,B9

# Biological target: T1, cynomolgus monkey B7-H7 (soluble analyte in SPR) (cynomolgus monkey)
# Test: SPR (Biacore)
Kd [nM],koff [s⁻¹],Binder
0.65,0.00011,B1
0.14,3.5e-05,B10
0.4,7.6e-05,B11
